Here are results for one molecule from PMC5552905, “Mechanisms of peptide sex pheromone regulation of conjugation in Enterococcus faecalis” (MicrobiologyOpen, 2017).

The subject of assay [1] is LT DNA (XBS1 and XBS2 operator sites), P Q promoter region. It is filed as binding, Enterococcus faecalis (plasmid pCF10). Particulars: LT DNA 8 fmol; PrgX 38-568 nmol L^−1 preincubated 5 min at room temperature with 40 nmol L^−1 peptide (C, I). The text has this:
(§1) The LT DNA template containing XBS1 and XBS2 sites (LT DNA, pCF10 sequence from nt 8029 to nt8185 (Hirt et al., 2005)) was PCR amplified from pCF10 using primers as described in. The XBS1 DNA template only has XBS1 site (pCF10 sequence 8029–8131nt) was made by annealing oligos ‐129/‐47‐F (5′[…] 3′) and −129/−47R (5′[…] 3′) to obtain double‐stranded DNA. The XBS2 DNA template only has the XBS2 site (pCF10 sequence from 8109 to 8290; −66 to +114 relative to the prgQ transcription initiation site), and was PCR amplified from pCF10 using primers as described in Caserta et al., 2012. In DNA templates with 5‐bp or 10‐bp insertions, sequence GTACC or […] was inserted between XBS1 and XBS2 sites and at a position of 6‐bp after the XBS1 site. DNA probes were labeled at the 3′‐ends with DIG‐11‐ddUTP using the DIG Gel Shift kit (Roche) by following the manufacturer's instructions. EMSA assays were performed in 20 μl reactions: DIG‐labeled DNA, purified proteins, 1 μg of poly‐[d(A‐T)], 0.1 μg of poly‐L‐lysine, 1 × reaction buffer (20 mmol L^−1 Tris‐HCl, pH 7.9, 0.1 mol L^−1 NaCl, 0.1 mmol L^−1 EDTA, 10% glycerol, 0.01 mol L^−1 MgCl2). The reactions were incubated at room temperature for 15 min and loaded onto 5% polyacrylamide gels in 1 × TBE buffer (Tris, Borate, EDTA, pH 7.9). After electrophoresis at 100 V for 1.5 h, the DNA–protein complexes and DNA probes were electrotransferred onto a nylon membrane (Roche) at 6 V for 2 h using the GENIE electrophoretic blotter (Idea Scientific). DIG‐labeled DNA fragments were visualized by an enzyme immunoassay (DIG Gel Shift Kit, Roche) following the manufacturer's instructions. […] For the experiments reported here the powdered form of the peptides were initially solubilized in pure DMF at 0.5 mg/ml, and then diluted 10‐fold in KPBS for use as a working stock solution, which was diluted into the EMSA reactions to a final peptide concentration of 40 nmol L^−1.
EMSA assays were performed using 8 fmol of digoxigenin‐labeled LT DNA probes with increasing amounts of PrgX protein. PrgX was preincubated for 5‐min at room temperature with 40 nmol L^−1 of C (a) or I (b) before adding LT DNA. PrgX concentrations: lanes 2 and 6: 38 nmol L^−1; lanes 3 and 7: 76 nmol L^−1; lanes 4 and 8: 190 nmol L^−1; lanes 5 and 9: 568 nmol L^−1. (c) Cartoon showing the predicted products formed by binding PrgX to LT DNA.

In assay [2] the test system is +5 probe (5 bp inserted between XBS1 and XBS2 sites). An excerpt: (§2) The LT DNA template containing XBS1 and XBS2 sites (LT DNA, pCF10 sequence from nt 8029 to nt8185 (Hirt et al., 2005)) was PCR amplified from pCF10 using primers as described in. The XBS1 DNA template only has XBS1 site (pCF10 sequence 8029–8131nt) was made by annealing oligos ‐129/‐47‐F (5′[…] 3′) and −129/−47R (5′[…] 3′) to obtain double‐stranded DNA. The XBS2 DNA template only has the XBS2 site (pCF10 sequence from 8109 to 8290; −66 to +114 relative to the prgQ transcription initiation site), and was PCR amplified from pCF10 using primers as described in Caserta et al., 2012. In DNA templates with 5‐bp or 10‐bp insertions, sequence GTACC or […] was inserted between XBS1 and XBS2 sites and at a position of 6‐bp after the XBS1 site. DNA probes were labeled at the 3′‐ends with DIG‐11‐ddUTP using the DIG Gel Shift kit (Roche) by following the manufacturer's instructions. EMSA assays were performed in 20 μl reactions: DIG‐labeled DNA, purified proteins, 1 μg of poly‐[d(A‐T)], 0.1 μg of poly‐L‐lysine, 1 × reaction buffer (20 mmol L^−1 Tris‐HCl, pH 7.9, 0.1 mol L^−1 NaCl, 0.1 mmol L^−1 EDTA, 10% glycerol, 0.01 mol L^−1 MgCl2). The reactions were incubated at room temperature for 15 min and loaded onto 5% polyacrylamide gels in 1 × TBE buffer (Tris, Borate, EDTA, pH 7.9). […]

For assay [3], the system named is +10 probe (10 bp inserted between XBS1 and XBS2 sites). It is filed as binding, Enterococcus faecalis (plasmid pCF10).
Text: as §2

Assay [4] deals with P Q (prgQ promoter) lacZ reporter. Briefly: β-galactosidase assay of P Q-lacZ reporter (pBK2, pBK2 + 5, pBK2 + 10) in E. faecalis. The assay is classed as cell-based, Enterococcus faecalis. The conditions noted are these: 10 ng/ml of C, 30 min at 37°C, PrgX in trans from pCF10, one experiment representative of three. The method, then:
To construct plasmids pBK2 + 5 and pBK2 + 10, the intergenic region between prgQ and prgX was excised from plasmids pBKAdd5 and pBKAdd10 and was cloned into pBK2 using enzymes XhoI and BamHI. Plasmids pBKAdd5 and pBKAdd10 (have the 5‐bp and 10‐bp sequence inserted between XBS1 and XBS2 sites (Kozlowicz, 2005).
E. faecalis cultures were grown overnight in M9‐YEG broth at 37°C with selective antibiotics. Cultures were then diluted 1:10 in fresh medium and grown for 90 min at 37°C. For induction, a final concentration of 10 ng/ml of C was added and cells were incubated for additional 30 min at 37°C. A modified Miller assay was performed as previously described (Kozlowicz, Bae, & Dunny, 2004).
To examine the effects of looping in vivo, we introduced the +5 and +10 base pair insertions between XBS1 and XBS2 sites on the reporter plasmid pBK2, which has a pheromone‐inducible lacZ reporter gene fused downstream from P Q. This enables transcription from P Q to be monitored by measuring β‐galactosidase activity in cell extracts. We transformed these constructs into either OG1Sp or OG1Sp/pCF10 (to provide PrgX protein in trans) and the resulting strains were assayed for β‐galactosidase production in the presence or absence of C.
Figure 4 Expression of β‐galactosidase from E. faecalis cells containing pBK2, pBK2 + 5, and pBK2 + 10. […]

Assay [5] deals with LT DNA (containing XBS1 and XBS2 sites). It is filed as binding, Enterococcus faecalis (plasmid pCF10).
Text: as §1

The subject of the next assay is LT DNA (prgQ promoter). The assay is classed as binding, Enterococcus faecalis (plasmid pCF10).
Text: as §1

The subject of assay [6] is B2 m1 DNA probe (XBS2 sequence changed). The experiment in a line: EMSA: PrgX and RNAP binding to B2 m1 probe (mutated XBS2). More on the design: species or system Enterococcus faecalis (plasmid pCF10). Particulars: PrgX 18, 54 nmol L^−1; RNAP 200, 240 nmol L^−1; RT, 15 min.
Text: as §2

The next assay relates to P Q (prgQ promoter). The conditions noted are these: purified PrgX, no peptide, ref Caserta et al., 2012, cited from earlier work. The text has this:
The target of PrgX‐peptide‐mediated regulation is the prgQ promoter (P Q), which controls expression of the majority of factors involved in pCF10 conjugation. PrgX binds specifically to two operator sites (XBS1 and XBS2) in the P Q region between prgX and prgQ. Because the lower‐affinity XBS2 site overlaps PQ, occupancy of XBS2 by PrgX could impede RNA polymerase binding to the promoter. Based on genetic and structural data, it was proposed that pairs of PrgX dimers could bind to XBS1 and XBS2, with the intervening DNA forming a loop that is stabilized by protein–protein interactions between t ... || It is interesting to consider transcription regulation in the pCF10 system by PrgX in relation to other well‐studied bacterial transcription factors. Many of the canonical transcription factors such as LacI are present in very low concentrations, and are modulated by low molecular weight ligands (co‐repressors, etc.) that are generally more abundant (Muller‐Hill, 1998). In contrast, wild‐type E. faecalis cells carrying pCF10 contain a large excess of PrgX (~15‐fold ratio of X dimers/XBSs) (Caserta et al., 2012), while the extracellular (and probably intracellular) concentrations of the peptide ...

Assay [7] relates to XBS1 and XBS2 operator sites. The conditions noted are these: apo-PrgX, ref Bae et al., 2002, cited from earlier work.
Text: We determined effects of C and I on PrgX‐DNA binding using in vitro electrophoretic mobility shift assays (EMSAs).

“Also recorded” adds a separate entry of the source. Where two headings read alike, the source gives them in different places.

B1: PrgX: master transcription regulator PrgX, a repressor of transcription of the prgQ operon; apo form is a dimer in solution (protein)
chain: MFKIGSVLKQIRQELNYHQIDLYSGIMSKSVYIKVEADSRPISVEELSKFSERLGVNFFEILNRAGMNTKSVNETGKEKLLISKIFTNPDLFDKNFQRIEPKRLTSLQYFSIYLGYISIAHHYNIEVPTFNKTITSDLKHLYDKRTTFFGIDYEIVSNLLNVLPYEEVSSIIKPMYPIVDSFGKDYDLTIQTVLKNALTISIMNRNLKEAQYYINQFEHLKTIKNISINGYYDLEINYLKQIYQFLTDKNIDSYLNAVNIINIFKIIGKEDIHRSLVEELTKISAKEKFTPPKEVTMYYENYVAIENNPIPEIKEQS
modifications: left off: His tag, end not stated, kept
notes: master transcription regulator PrgX, a repressor of transcription of the prgQ operon; apo form is a dimer in solution
With B1, the “effect on PrgX-DNA binding: shifted complexes, amount of band II (supershift)” value in [1] is “bound to the LT, producing two‐shifted complexes: band I and band II”. Moreover, the “shift of +5 probe (band I / band II)” value in [2] is reported as “shifted the probe nearly completely to band I, with no distinct supershifted band II”. For the same molecule, the “shift of +10 probe (band I / band II)” value in assay [3] is given as “binding profile was similar to LT DNA wild‐type probe”. Moreover, the “lacZ expression (β-galactosidase), 5 bp insertion construct” value in assay [4] (pBK2 + 5) is “no effect on lacZ activity”. Further, the “lacZ expression (β-galactosidase), 10 bp insertion construct” value in assay [4] (pBK2 + 10) is reported as “β‐galactosidase expression was repressed”. In assay [5], the “fold higher K D of PrgX dimer to XBS1 site” value is listed as “about 10 fold”. The “fold higher K D of PrgX dimers bound to XBS2” value in assay [5] is given as ~1000 fold. Further, in assay [5] (EMSA densitometry, two-site binding polynomial, apo-PrgX (dimer) on LT DNA, mean ± SD of three independent EMSA experiments, read-out: K xbs1: K D of binding to XBS1 site), the Kd came to 4.04 ± 3.36 nM. Further, the “effect on LT DNA shifts / RNAP binding” value in the assay with LT DNA (prgQ promoter) was “formation of the high‐molecular‐weight RNAP‐DNA species was nearly eliminated; also recorded: hinders RNAP binding to prgQ promoter”. For the same molecule, the “binding to B2 m1 probe” value in [6] is recorded as “produced the band I shift, however, there was a dramatic reduction in band II”. The figures for the “repression of P Q in vitro” value in the assay on P Q (prgQ promoter) and with P Q (prgQ promoter) (listed as apo‐PrgX) were “directly represses P Q” and “repress prgQ transcription in vitro”, respectively. For the same molecule, the “relative affinity for XBS1 vs XBS2 / binding to probes lacking XBS1” value in assay [7] (listed as Apo‐PrgX) was “binds to XBS1 with relatively higher affinity than to XBS2”; in assay [7] (listed as apo‐PrgX), “reduced binding of apo‐PrgX to DNA probes lacking XBS1 and virtually no supershifted species resembling Band II”.
